Measurements as given in US20240124857A1, “COMPOSITION FOR GUT HEALTH” (DUPONT NUTRITION BIOSCIENCES APS, priority 2021, published 2024).

Columns and labels:
Assay type in all cases: biochemical
[1] = Relative activity on ATP of CRC22110 single-site variants; details: in comparison to CRC22110 wild type
[2] = ATPase activity at 0.05 ppm enzyme on 0.1 mM ATP (absorbance 620 nm); details: for Activity on ATP (absorbance at 620 nm, blank subtracted), pH 5.0: 50 mM IVIES buffer pH 5; for Activity on ATP (absorbance at 620 nm, blank subtracted), pH 6.0: 50 mM IVIES buffer pH 6
Protocol: Enzyme activity towards ATP or ADP at pH 3 to 9: The ability of candidate enzymes to degrade ATP or ADP to AMP and free phosphate (Pi) was measured using a standard malachite green phosphate detection kit (Sigma Aldrich cat no. MAK307). The enzyme reactions were carried out in 96-well plates with a total volume of 150 μL and contained 250 μM of a substrate, 50 mM of a buffer, 5 mM CaCl2, and a variable concentration of enzyme. The substrate was ATP or ADP. The buffer was glycine (pH 3), acetate (pH 4, 4.5, 5), bis-Tris (pH 5.5, 6, 6.5), or Tris (pH 7, 8, 9). The concentration of enzyme varied from about 1 μg/mL to 1 ng/mL and was adjusted based on the activity of the enzyme so that the amount of phosphate released during the assay was with the dynamic range of the assay (5-100 μM phosphate). The enzyme concentration was determined by the absorbance at 280 nm and using the predicted molecular weight and molar extinction coefficient to calculate the concentration. The enzyme reaction was initiated by the addition of 15 μL enzyme with 135 μL of the other reaction components such that the final reaction composition was as previously described. The reaction was stopped after 5 min by mixing 80 μL of the reaction mixture with 20 μL of the malachite green working reagent. The malachite green working reagent was prepared according to the manufacturer's protocol by mixing 100 parts reagent A with 1 part reagent B. Phosphate standard solutions (0-80 μM) and a negative control reaction without enzyme were also mixed with the malachite green working reagent. All samples were tested in duplicate. The malachite green reaction mixture was allowed to rest at room temperature for 45-60 min and the absorbance at 620 nm was measured. Lastly, the absorbance of the phosphate standards were used to convert the absorbance readings of each sample into phosphate concentrations and the negative control was subtracted from each reaction.
Enzymes of interest were assayed against ATP substrate. The ATPase activity was measured at 0.05 ppm concentration in 50 mM IVIES buffer pH 6 and pH 5 with 0.1 mM ATP as substrate as described in Example 1. Commercial potato apyrase was used as reference. The absorbance at 620 nm was measured and the absorbance of a blank sample (water) was subtracted from each sample.

[3] = pH profile of enzymes on 1 mM ATP; details: 50 mM trisodium citrate/citric acid, 5 mM CaCl2, relative to the highest value
Protocol: The pH profile of additional enzymes of interest was assayed using 1 mM ATP, in 50 mM trisodium citrate/citric acid buffer with 5 mM CaCl2. Absorbance was read at 620 nm and all values were set relative to the highest one. Commercial potato apyrase was used as reference. […]

Molecule | Activity on ATP (absorbance at 620 nm, blank subtracted), pH 5.0 [2] | Activity on ATP (absorbance at 620 nm, blank subtracted), pH 6.0 [2] | Relative activity (%) on ATP [1] | Relative activity on ATP, pH 3 [3] | Relative activity on ATP, pH 3.5 [3] | Relative activity on ATP, pH 4 [3] | Relative activity on ATP, pH 4.5 [3] | Relative activity on ATP, pH 5 [3] | Relative activity on ATP, pH 5.5 [3] | Relative activity on ATP, pH 6 [3] | Relative activity on ATP, pH 6.5 [3]
CRC22110v8: single-site variant F205A of CRC22110 (SEQ ID NO: 9) (protein, listed as Gallaecimonas xiamenensis) ADKPACRAVFDAGSSGTRLFLYVQQEGGWQPWPGAKLGALADPVRQHQGPKAMAALAADLANSLEALRQDGPTNSEGQPRWQGFDWQQACRLQSVSVLATAGMRLAEQQDPVASVALWQEVQQALAGLLGPAVAIDARTLTGFEEGFYAWLAARARLGRSDMGIVEMGGASSQVAFPCPACDRADDAVQQVRLEGQTLDFYSYSALGLGQDEAPKVLGVPHACRYGAGVKDPNWQLGQCQAQLPLTLGRALKDPYNFQGQGQGGYRQVPTEKAGVKDWLLTGAFQYNTPDQLDSCCLNQGQCYQPSTACFRVAYLPLYLDSLGVDPHSPDLDVSWTLGAVLCRNEQCLAPSKPPCRWRKAGCLAPSVGDGRPEGRPGQQPGGVQHRQH |  |  | 68% |  |  |  |  |  |  |  | 
CRC25085: Acid phosphatase (Class A), accession WP_092747651.1, SEQ ID NO:21 (protein, listed as Acinetobacter boissieri) LEQSNSFLQLAQVPDSLAIVPAPPAYNSVDFLRDKAAYDQAKSLVGTERWKVAAEDADLSDANIGKPFSQALGIEISPQNTPITYEILRKLRTDAGNYATKAAKEHYMRLRPFMFFNSHTCTPNDEANLSKNGAYPSGHTTIGWSSALVLAEIRPERQNEILQRGYEYGQSRVICGVHWQSDVDAGRITGSAIVARLHADKAFTKMLEEAKQEIQRKTK | 0.23 | 0.20 |  | 0.5 | 0.6 | 0.8 | 0.9 | 0.9 | 1.0 | 0.8 | 0.9
CRC25084: Acid phosphatase (Class A), accession WP_088823167.1, SEQ ID NO:20 (protein, listed as Acinetobacter apis) ADSNNSFLQLNQVPDSLKIVPAPPAFNSVDFLRDKAAYDQARSLVGTARWQQAAVDADLSDANIGKSFSEAFGVEISPTNTPVTYEILRKLRTDAGGYATKTAKEHYMRMRPFVFFNSHTCTPNDEASLSKNGAYPSGHTTIGWSSALILAEIRPDRQNEILERGYQYGQSRVICGVHWQSDVDAGRITGSAIVARLHADKDFAKTLEDAKREIQKKIK | 0.20 | 0.17 |  | 0.4 | 0.6 | 0.6 | 0.9 | 0.9 | 1.0 | 1.0 | 0.9

More lines, main results first:

Activity on ATP (absorbance at 620 nm, blank subtracted), pH 5.0 [2] | Activity on ATP (absorbance at 620 nm, blank subtracted), pH 6.0 [2] | Molecule | Relative activity (%) on ATP [1] | Relative activity on ATP, pH 3 [3] | Relative activity on ATP, pH 3.5 [3] | Relative activity on ATP, pH 4 [3] | Relative activity on ATP, pH 4.5 [3] | Relative activity on ATP, pH 5 [3] | Relative activity on ATP, pH 5.5 [3] | Relative activity on ATP, pH 6 [3] | Relative activity on ATP, pH 6.5 [3]
0.24 | 0.05 | CRC25089: Acid phosphatase (Class A), accession WP_217352265.1, SEQ ID NO:22 (protein, listed as Paraburkholderia bonniea) AGSDGFLTAETAPSSLAILPPPPAENTVAFLNDKANYEIGRSLKNDARVALAASDANCKNINAIFSSAFGREISEEKTPKLYRLLLGVLQDSHDHAMKSAKNHYMRVRPFVMYGDKTCTPEEDNKMKNTGSYPSGHASFGWAAALVLSEINPERTTEILRRGYDFGQSRVVCGAHWQSDVDNGRLMGAAVVADLHNNDKFIKALEAAKAEFKENTPGN |  | 0.8 | 1.0 | 0.9 | 0.9 | 0.8 | 0.7 | 0.3 | 0.2
0.05 | 0.10 | CRC22104: GDA1/CD39 family enzyme, accession TAL58835.1, SEQ ID NO:7 (protein, listed as Legionella sp.) IEQDPCQEKQCMIVVDAGSTGSRLHFYTYDTDETNSPINIEEIWSKRIKPGISHVEANRSSIDAYLVTLLAGTPHSNHVPVYFYATAGMRLLPAAKQKLIYQEIKFWFAQQNQWRLMDAKTIYGSQEALYDWLAVNHQLGTLQSVQTKSVGVMDMGGASVQIVFPVQNNPDLKNNTLAEFNLYGQHIRLAVRSFLGLGQTEMSHQFLNYAPCFANNYPLPDGFLGEGDALSCVEEVASLMNGVHSVNKEIQPLLAANPVNIWYAIGGLSFLADNSVIHFNNYQLTNEQLLQQVDSKICHQEWDVLDEQFPNEEYLYQFCLLSAYYYALMVEGYGLLPNETINYLPSSQNLDWTIGVVLYPRLTVLQ |  | 0.0 | 0.0 | 0.0 | 0.3 | 0.8 | 0.9 | 1.0 | 1.0
1.05 | 0.93 | CRC25099: Acid phosphatase (Class A), accession WP_195761705.1, SEQ ID NO:23 (protein, listed as Pantoea sp.) LQSSGFLTAETAPDSLAILPPPPAENSVTFQSDKAQYEAGHVLRNVARTELASKDADYKNFGQAFSAAFGMEISESHTPVLYHLLSEVLQDSHDFAMRGAKDHYKRVRPFVIYKDSTCTPDKDKSMSTTGSYPSGHASFGWAAALILAEINPSRETEIIRRGYDFGESRVVCGAHWQSDVENGRIMGATVVASLHANAKFAELLSQAKNEFATLSAQDSK |  | 0.0 | 0.1 | 0.3 | 0.7 | 0.8 | 1.0 | 0.8 | 0.5
1.11 | 0.90 | CRC25100: Acid phosphatase (Class A), internal database, SEQ ID NO:24 (protein, environmental sample) GENSGFLSPETSPNSLEILPPPPSEGSIAFLNDKANYDIGHTLKNEGRLAQAVSDANYKNLTDAFSKAFGETISEQNTPALYSLLQNVLQDSHDFAMRAAKDHYKRVRPFVIYKDHTCTPAEDTKMAKTGSYPSGHASFGWATALVLSEINPARETEILKRGYEFGQSRVICGAHWQSDVDSGRIMGAAVVASLHNNSDFISALAKAKEEFRKK |  | 0.0 | 0.0 | 0.1 | 0.4 | 0.8 | 1.0 | 1.0 | 0.7
